Target: ubql1_human UBQLN1 (UniProt Q9UMX0)
Sequence (Q9UMX0 whole entry): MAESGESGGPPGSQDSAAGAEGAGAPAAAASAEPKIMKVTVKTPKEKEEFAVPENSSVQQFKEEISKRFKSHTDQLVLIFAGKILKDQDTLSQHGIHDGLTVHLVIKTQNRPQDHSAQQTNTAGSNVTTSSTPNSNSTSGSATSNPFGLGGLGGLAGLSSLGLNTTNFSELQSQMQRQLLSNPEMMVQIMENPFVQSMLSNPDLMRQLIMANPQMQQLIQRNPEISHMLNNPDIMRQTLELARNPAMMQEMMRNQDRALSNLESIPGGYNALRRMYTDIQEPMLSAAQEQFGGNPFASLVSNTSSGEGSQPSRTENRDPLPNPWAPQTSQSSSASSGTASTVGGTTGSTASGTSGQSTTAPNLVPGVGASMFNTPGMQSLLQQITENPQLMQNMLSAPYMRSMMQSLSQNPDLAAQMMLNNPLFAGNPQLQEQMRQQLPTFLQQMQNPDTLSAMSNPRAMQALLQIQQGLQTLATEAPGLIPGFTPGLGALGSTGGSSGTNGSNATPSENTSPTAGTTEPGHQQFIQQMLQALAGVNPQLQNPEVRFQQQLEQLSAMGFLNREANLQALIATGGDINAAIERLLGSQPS

Substance: Cytochrome c oxidase subunit 1 (Homo sapiens) (from UniProt P00395) V83I
- effect of a mutation on the interaction: with no effect

Source: IntAct's records for PubMed 29610859
